How the values were obtained:
Experiment in all cases: SPR (Biacore), PEP07843 immobilized, analyte protein injected
hIL-17D = biological target: T1, hIL-17D (human, UniProt Q8TAD2 18-202, limits assumed)
T1 sequence (looked up): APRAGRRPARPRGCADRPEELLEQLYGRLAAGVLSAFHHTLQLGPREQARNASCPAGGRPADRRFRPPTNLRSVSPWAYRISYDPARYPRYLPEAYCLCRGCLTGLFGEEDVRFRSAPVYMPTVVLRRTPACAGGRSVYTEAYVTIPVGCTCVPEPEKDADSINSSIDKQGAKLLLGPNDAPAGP
Protocol: (§1) In the binding experiment, HBS-EP was used as running buffer and the flow rate was 30 μl/min. […] The analytes, i.e. the panels of 24 or 12 different proteins, were each diluted in HBS-EP or HBS-EP supplemented with 500 mM NaCl to final concentrations of from 0.4 to 250 nM and injected for 5 min. […] The results were analyzed using the BiaEvaluation software.
(§2) The Z-ABD-Z polypeptides were injected over surfaces containing HSA followed by injection of the analyte proteins.

hIL-17C = biological target: T2, hIL-17C (human, UniProt Q9P0M4 19-197)
T2 sequence (looked up): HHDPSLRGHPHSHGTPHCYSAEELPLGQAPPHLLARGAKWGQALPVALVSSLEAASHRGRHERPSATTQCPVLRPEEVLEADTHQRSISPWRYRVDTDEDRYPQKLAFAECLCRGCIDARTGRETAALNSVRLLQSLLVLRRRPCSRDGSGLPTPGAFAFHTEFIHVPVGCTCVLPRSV
Protocol: as §1, §2

human IL-17F = biological target: T3, human IL-17F (human, UniProt Q96PD4 31-163)
T3 construct: R&D Systems cat. no; 1335-IL/CF; also called hIL-17F
T3 sequence: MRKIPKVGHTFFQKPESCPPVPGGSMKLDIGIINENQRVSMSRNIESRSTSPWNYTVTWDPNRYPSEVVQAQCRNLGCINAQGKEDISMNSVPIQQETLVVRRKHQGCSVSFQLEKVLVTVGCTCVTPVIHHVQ
Protocol: as §1, §2

[1] = biological target: T4, human IL-17A/F heterodimer (human, UniProt Q16552 20-155; Q96PD4 31-163, limits assumed)
T4 construct: bought; also called hIL-17A/F
T4 sequence (looked up) 1: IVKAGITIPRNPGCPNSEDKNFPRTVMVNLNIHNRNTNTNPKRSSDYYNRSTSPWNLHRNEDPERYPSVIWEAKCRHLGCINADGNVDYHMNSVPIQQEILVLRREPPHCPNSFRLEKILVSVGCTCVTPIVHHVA
T4 sequence (looked up) 2: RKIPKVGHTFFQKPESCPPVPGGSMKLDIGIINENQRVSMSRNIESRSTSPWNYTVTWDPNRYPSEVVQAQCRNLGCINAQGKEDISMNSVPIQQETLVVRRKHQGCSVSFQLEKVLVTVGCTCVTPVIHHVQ
Protocol: as §1, §2

Beta-2-microglobulin/B2M = Beta-2-microglobulin/B2M (UniProt P61769 21-119)
Sequence of Beta-2-microglobulin/B2M (P61769 21-119 limits assumed): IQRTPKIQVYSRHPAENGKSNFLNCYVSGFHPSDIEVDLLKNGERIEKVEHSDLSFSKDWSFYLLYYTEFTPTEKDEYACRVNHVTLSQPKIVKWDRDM
Protocol: as §1, §2

[2] = biological target: T5, AMBP/Alpha1 microglobulin (UniProt P02760 20-203, limits assumed)
T5 sequence (looked up): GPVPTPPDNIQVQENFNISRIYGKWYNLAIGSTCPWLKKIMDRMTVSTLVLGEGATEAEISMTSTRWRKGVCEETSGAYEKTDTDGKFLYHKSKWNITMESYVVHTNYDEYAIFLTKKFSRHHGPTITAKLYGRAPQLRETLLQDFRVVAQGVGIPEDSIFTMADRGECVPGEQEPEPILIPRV
Protocol: as §1, §2

hGM-CSF = hGM-CSF (human, UniProt P04141 18-144)
Sequence of hGM-CSF (P04141 18-144 limits assumed): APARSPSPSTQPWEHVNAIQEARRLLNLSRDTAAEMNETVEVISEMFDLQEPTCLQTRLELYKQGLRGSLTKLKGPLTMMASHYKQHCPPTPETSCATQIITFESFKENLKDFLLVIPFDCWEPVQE
Protocol: as §1, §2

[3] = biological target: Alpha-1-antitrypsin (SERPINA1 Human) (human, UniProt P01009 25-418)
Sequence of Alpha-1-antitrypsin (SERPINA1 Human) (P01009 25-418 limits assumed): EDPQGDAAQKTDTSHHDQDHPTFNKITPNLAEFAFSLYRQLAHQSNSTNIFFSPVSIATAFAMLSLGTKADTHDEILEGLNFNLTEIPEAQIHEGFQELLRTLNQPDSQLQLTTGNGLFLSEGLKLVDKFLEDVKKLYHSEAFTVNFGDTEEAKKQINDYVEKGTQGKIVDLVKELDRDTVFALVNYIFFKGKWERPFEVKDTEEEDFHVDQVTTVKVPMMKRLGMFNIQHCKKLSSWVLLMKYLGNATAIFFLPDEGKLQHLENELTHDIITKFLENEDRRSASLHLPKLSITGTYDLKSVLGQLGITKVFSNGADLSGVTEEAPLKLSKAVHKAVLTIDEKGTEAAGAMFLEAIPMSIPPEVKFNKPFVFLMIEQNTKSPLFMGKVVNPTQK
Protocol: as §1, §2

IL-1R1 = biological target: T6, IL-1R1 (UniProt P14778 18-332, limits assumed)
T6 sequence (looked up): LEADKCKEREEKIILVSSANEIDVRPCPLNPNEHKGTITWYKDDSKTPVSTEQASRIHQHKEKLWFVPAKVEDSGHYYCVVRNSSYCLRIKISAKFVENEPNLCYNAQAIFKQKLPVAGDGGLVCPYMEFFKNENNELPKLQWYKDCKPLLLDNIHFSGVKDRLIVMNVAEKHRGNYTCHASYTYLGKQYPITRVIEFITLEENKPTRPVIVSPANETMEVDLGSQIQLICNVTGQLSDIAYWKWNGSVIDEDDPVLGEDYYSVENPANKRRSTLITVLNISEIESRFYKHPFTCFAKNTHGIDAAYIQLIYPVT
Protocol: as §1, §2

hIL-17B = biological target: T7, hIL-17B (human, UniProt Q9UHF5 21-180)
T7 sequence (looked up): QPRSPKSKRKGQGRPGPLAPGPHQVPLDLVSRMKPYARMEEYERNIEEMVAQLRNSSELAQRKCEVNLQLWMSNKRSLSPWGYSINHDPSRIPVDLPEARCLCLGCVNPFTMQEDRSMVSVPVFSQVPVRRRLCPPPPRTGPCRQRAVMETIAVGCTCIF
Protocol: as §1, §2

hIL23 = biological target: T8, hIL23 (human, UniProt Q9NPF7 20-189; P29460 23-328)
T8 construct: the two subunits are general knowledge
T8 sequence (looked up) 1: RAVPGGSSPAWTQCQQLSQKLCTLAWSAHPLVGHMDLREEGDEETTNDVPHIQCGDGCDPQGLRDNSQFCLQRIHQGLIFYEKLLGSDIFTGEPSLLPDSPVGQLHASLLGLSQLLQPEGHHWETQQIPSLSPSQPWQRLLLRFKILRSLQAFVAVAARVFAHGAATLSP
T8 sequence (looked up) 2: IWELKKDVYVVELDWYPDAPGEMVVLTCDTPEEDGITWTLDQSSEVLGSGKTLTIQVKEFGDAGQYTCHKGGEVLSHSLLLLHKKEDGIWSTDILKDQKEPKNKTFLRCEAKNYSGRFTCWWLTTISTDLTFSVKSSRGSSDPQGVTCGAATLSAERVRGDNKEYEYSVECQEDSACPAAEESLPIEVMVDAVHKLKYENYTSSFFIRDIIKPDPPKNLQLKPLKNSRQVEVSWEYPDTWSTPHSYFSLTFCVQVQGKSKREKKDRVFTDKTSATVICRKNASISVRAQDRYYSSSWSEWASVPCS
Protocol: as §1, §2

Measured: binding result

GSSLAEAKEAANAELDSYGVSDFYKRLIDKAKTVEGVEALKDAILAALP (designed binder) [ABD variant PEP07843]
no binding (tested: 50, 250 nM): all assays above
